Assay in all cases: cell-based or functional assay
Assay [1] concerns the target T1, F protein of human metapneumovirus strain JPS02-76 (type B1), on infectious virus (human metapneumovirus, strain JPS02-76 …, UniProt Q6WB98 19-539).
Assay [2] addresses T2, F protein of human metapneumovirus strain JPS05-21 (type B2), on infectious virus (human metapneumovirus, strain JPS05-21 …).
In assay [3] the target is T3, F protein of human metapneumovirus strain JPS03-180 (type A1), on infectious virus (human metapneumovirus, strain JPS03-180 …).
Assay [4] deals with T2, F protein of human metapneumovirus …. This is another data set of the same source.
Assay [5] has as its target T3, F protein of human metapneumovirus …. This is another data set of the same source.
For assay [6], the target named is T4, F protein of human metapneumovirus strain JPS03-178 (type A2), on infectious virus (human metapneumovirus, strain JPS03-178 …).
Assay [7] addresses T1, F protein of human metapneumovirus …. The source holds these as a separate data set.
Assay [8] has as its target T2, F protein of human metapneumovirus …. The source holds these as a separate data set.
Assay [9] deals with T3, F protein of human metapneumovirus …. The source holds these as a separate data set.
Assay [10] concerns the target T4, F protein of human metapneumovirus …. The source holds these as a separate data set.
In assay [11] the target is T1, F protein of human metapneumovirus …. The source holds these as a separate data set.
Assay [12] addresses T2, F protein of human metapneumovirus …. This is another data set of the same source.
In assay [13] the target is T3, F protein of human metapneumovirus …. This is another data set of the same source.
The target of assay [14] is T4, F protein of human metapneumovirus …. The source holds these as a separate data set.
For assay [15], the target named is T1, F protein of human metapneumovirus …. This is another data set of the same source.

B1: EV046142 (antibody, human IgG1, lambda, V domains shown)
VH: QVQLVQSGAEVKKPGSSVRVSCKASGGTFSTYGINWVRQARGQGLEWMGTVIPTFEKTYYAQGFQGRVTIAADGSKNTVYMELRRLTSEDSAIYFCTRFFTPYCSGGSCYLDLWGPGTLVTVSS
VL: QSVLTQPPSVSGAPGQSVTISCAGSSSNIGAGYDVHWYQHLPGTAPRLLIYSNTNRPSGVPDRFSGSKSGASASLAITGLQAEDEADYYCQSYDSGVVFGGGTKLTVLR
Take B1: the “IC50, neutralizing activity (hMPV infection of LLC-MK2 cells)” value (shortened to “IC50 … (hMPV infection of LLC-MK2 cells)”) was 0.42 µg/mL in assay [1], 0.22 µg/mL in [2] and 0.22 µg/mL in assay [3]. Further, the “IC50, neutralizing activity (hMPV infection of LLC-MK2 cells; GraphPad Prism 6)” value is 273 ng/mL in assay [4], 212 ng/mL in [5] and 61.4 ng/mL in assay [6]. The “IC60, neutralizing activity (hMPV infection of LLC-MK2 cells; GraphPad Prism 6)” value (from here on “IC60, neutralizing activity”) in [7] amounted to 641 ng/mL; in assay [8], 366 ng/mL; in assay [9], 243 ng/mL; in assay [10], 97.1 ng/mL. Besides, the “IC90, neutralizing activity (hMPV infection of LLC-MK2 cells; GraphPad Prism 6)” value (shortened to “IC90, neutralizing activity”) in [11] is 1570 ng/mL; in assay [12] it was 1350 ng/mL; in assay [13], 443 ng/mL; in [14], 738 ng/mL. Also, the “IC50, cell-to-cell spread inhibitory activity (LLC-MK2 cells stably expressing TMPRSS2)” value in [15] turned out to be 12.3 ng/mL. Also, the “IC90, cell-to-cell spread inhibitory activity (LLC-MK2 cells stably expressing TMPRSS2)” value in assay [15] amounted to 66.4 ng/mL.

B2: EV046147 (antibody, human IgG1, lambda, V domains shown)
VH: QVQLVQSGAEVKKPGASVKVSCKASGYTFSVYGISWVRQAPGHGLEWMGWISAYNGDRGYAQKVQGRITMTTDTSASTAYMELRSLTSDDTAVYYCATTSSGVPGIYWGQGSLVTVSS
VL: SYALVQPPSVSVSPGQTARITCFGPALPKKYAYWYQHKSGQAPMLVIYEDTKRPSGIPQRFSGSTSGATATLTIRGAQVEDEADYYCYSTDSSGHERVFGGGTKLTVLG
For B2, the “IC50 … (hMPV infection of LLC-MK2 cells)” value in assay [1] is 0.39 µg/mL; in assay [2], 0.27 µg/mL; in assay [3] it was 0.31 µg/mL. In addition, the figures for the “IC50, neutralizing activity (hMPV infection of LLC-MK2 cells; GraphPad Prism 6)” value in assay [4], in assay [5] and in assay [6] were 253 ng/mL, 326 ng/mL and 1980 ng/mL, respectively. Besides, the “IC60, neutralizing activity” value in assay [7] came out at 514 ng/mL; in [8], 298 ng/mL; in [9] it was 406 ng/mL; in [10], 2060 ng/mL. Further, the “IC90, neutralizing activity” value came out at 1180 ng/mL in assay [11], 612 ng/mL in [12], 1070 ng/mL in assay [13] and 2410 ng/mL in [14]. In addition, in assay [15], the “IC50, cell-to-cell spread inhibitory activity (LLC-MK2 cells stably expressing TMPRSS2)” value was 114 ng/mL. Also, the “IC90, cell-to-cell spread inhibitory activity (LLC-MK2 cells stably expressing TMPRSS2)” value in assay [15] was 506 ng/mL.

B3: EV046143 (antibody, human IgG1, kappa, V domains shown)
VH: QVQLVQSGAEVQKPGSSVKVSCKTSGDTFNNYALSWVRQAPGQGPEWMGRIIPLVEMANYAQKFQGRVTITADKSTTTIYMELSSLRSEDTAMYYCARDGYQGGFPYFFDSWGQGTLVTVSS
VL: EVVLTQSPGTLSLSPGERATLSCRASQSVSNYLAWYQQKPGQAPRLLISAASSRATGIPDRFGGSGSGADFTLTISRLEPEDFAVYYCQQYGFSPGTFGQGTKVEIRR
For the molecule B3, the “IC50 … (hMPV infection of LLC-MK2 cells)” value is 0.46 µg/mL in [1], 0.27 µg/mL in [2] and 0.13 µg/mL in assay [3]. In addition, the “IC50, neutralizing activity (hMPV infection of LLC-MK2 cells; GraphPad Prism 6)” value was found to be 272 ng/mL in assay [4], 157 ng/mL in assay [5] and 19.8 ng/mL in [6]. The “IC60, neutralizing activity” value in assay [7] is 627 ng/mL; in assay [8], 363 ng/mL; in assay [9], 186 ng/mL; in assay [10] it was 26.6 ng/mL. Moreover, the “IC90, neutralizing activity” value in assay [11] came out at 734 ng/mL; in assay [12], 1300 ng/mL; in assay [13], 402 ng/mL; in assay [14], 96.7 ng/mL. Moreover, the “IC50, cell-to-cell spread inhibitory activity (LLC-MK2 cells stably expressing TMPRSS2)” value in assay [15] worked out at 57.2 ng/mL. In addition, the “IC90, cell-to-cell spread inhibitory activity (LLC-MK2 cells stably expressing TMPRSS2)” value in assay [15] was 886 ng/mL.

B4: EV046141 (antibody, human IgG1, lambda, V domains shown)
VH: QVQLVQSGAEVKKPGASVKVSCKASGYTFADYYIHWLRQAPGQGLEWLGRINPSNSRTTYPQKFQGRVTVTRDTSTSTVYMELSSLRSADTAVYYCARDGLRMGYYYMDVWGKGTTVTVSS
VL: QSVLTQPPSVSGAPGQRVTISCTGSSSNIGAGYDVHWYQQIPGTAPKLLIFGNYNRPSGVPDRFSASKSGTSASLAITGLQAEDEAHYYCQSYDTTLDGAVFGGGTKLTVLG
On to B4, for which the “IC50 … (hMPV infection of LLC-MK2 cells)” value in assay [1] is 0.74 µg/mL; in [2] it was 0.44 µg/mL; in assay [3] it was 0.2 µg/mL. Moreover, the results for the “IC50, neutralizing activity (hMPV infection of LLC-MK2 cells; GraphPad Prism 6)” value in assay [4], in assay [5] and in assay [6] were 524 ng/mL, 214 ng/mL and 2110 ng/mL, respectively. The “IC60, neutralizing activity” value in [7] was determined as 883 ng/mL; in [8], 571 ng/mL; in assay [9], 276 ng/mL; in assay [10], 2180 ng/mL. The “IC90, neutralizing activity” value in assay [11] came out at 2180 ng/mL; in assay [12] it was 836 ng/mL; in assay [13] it was 863 ng/mL; in assay [14], 2520 ng/mL. Further, the “IC50, cell-to-cell spread inhibitory activity (LLC-MK2 cells stably expressing TMPRSS2)” value in assay [15] amounted to 36.3 ng/mL. In addition, the “IC90, cell-to-cell spread inhibitory activity (LLC-MK2 cells stably expressing TMPRSS2)” value in [15] was found to be 171 ng/mL.

The values are drawn from patent US20150322137A1 (EVEC, published 2015).
